Results from patent US20110059093A1.

Target: T1, Tau fragment Ser-Ile-Asp-Met-Val-Asp-Ser-Pro-Gln-Leu-Ala-Thr-Leu-Ala-Asp (SEQ ID NO:10) (human)
T1 sequence (peptide, biotinylated): SIDMVDSPQLATLAD
Test: ELISA, biotinylated peptide on streptavidin plate, absorbance 405 nm-492 nm

B1: Mab2.10.3 (anti-Tau pS422 antibody) (antibody, IgG1, V domains shown)
VH: EVQLVESGGDLVRPGGSLKLSCAASGFTFRTYGMSWVRQTADKRLEWVATISSGGTYTYYADNVRERFTISRDNARDTLYLQMSRLESDDTAMYYCTRRYGYDGGGSFDVWGAGTRVTVSS
VL: EIVMTQAAPSVPVTPGESASISCRSNKSLLHSNGNTYLCWFLQRPGQSPQLLIYRMSTLAPGVPDRFSGSGSGTAFTLRISRLEAEDVGVYYCMQHIEYPLTFGAGTKLELK
  Max O.D. Tau fragment binding: 30 mE
